target: tissue factor (TF) (human) (UniProt P13726); test: SPR (ProteOn), Fab captured on anti-penta His, TF analyte, 1:1 fit
Sequence (P13726 33-251 limits assumed): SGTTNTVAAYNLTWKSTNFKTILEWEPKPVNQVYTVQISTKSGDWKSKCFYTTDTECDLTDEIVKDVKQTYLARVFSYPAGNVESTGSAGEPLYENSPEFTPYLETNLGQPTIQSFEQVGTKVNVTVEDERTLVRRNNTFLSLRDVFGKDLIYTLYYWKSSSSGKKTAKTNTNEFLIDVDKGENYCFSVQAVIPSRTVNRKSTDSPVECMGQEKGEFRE

Row | Substance | Kd [pM] | change in KD vs wild type, -(log(KD design)-log(KD wt))
1 | H1L1 Fab heterodimer of LCCA set 9041 (D3H44 Fab; H: A139C_C233S; L: F116C_C214S) | 140 | 
2 | H1L1 Fab heterodimer of LCCA set 9725 (D3H44 Fab; H: L143E_K145T_S188L; L: Q124R_Q160K_T178R) | 240 | -0.19
3 | H1L1 Fab heterodimer of LCCA set 9068 (D3H44 Fab; H: F174G; L: S131T_S176F_T178F) | 130 | 0.07
4 | H1L1 Fab heterodimer of LCCA set 9734 (D3H44 Fab; H: L143K_D146G; L: Q124E_V133D) | 260 | -0.22
5 | H1L1 Fab heterodimer of LCCA set 9743 (D3H44 Fab; H: L143R; L: Q124E_V133E_S176L) | 280 | -0.25
6 | H1L1 Fab heterodimer of LCCA set 9043 (D3H44 Fab; H: F122C_C233S; L: S121C_C214S) | 160 | 
7 | H1L1 Fab heterodimer of LCCA set 9917 (D3H44 Fab; H: S188L_V190Y; L: V133S) | 100 | 0.2
8 | H1L1 Fab heterodimer of LCCA set 9071 (D3H44 Fab; H: F174V; L: S131T_S176F_T178F) | 210 | -0.12
9 | H1L1 Fab heterodimer of LCCA set 9205 (D3H44 Fab; H: L124E_L143D_K145M; L: V133G_S176R_T178K) | 280 | -0.25
10 | H1L1 Fab heterodimer of LCCA set 9100 (D3H44 Fab; H: L124A_Q179K; L: Q124E_V133W_T180E) | 120 | 0.1
11 | H1L1 Fab heterodimer of LCCA set 9102 (D3H44 Fab; H: L124A_S186K; L: Q124E_V133W_T180E) | 150 | 0.02
12 | H1L1 Fab heterodimer of LCCA set 6037 (D3H44 Fab; H: L124A; L: V133W) | 130 | 0.07

target: tissue factor (TF) antigen (UniProt P13726); test: SPR, Fab captured on anti-penta His surface, TF as analyte, 1:1 fit
Sequence (P13726 33-251 limits assumed): as above

Row | Substance | Change in KD with respect to wild type (-(log(KD design) - log(KD wt))) | Kd [pM]
13 | D3H44 Fab heterodimer, H1L1 of LCCA Sets # 9560 and 9561 (H1 L124W_L143E_K145T_Q179E; L1 Q124R_V133A_S176T_T178R) | -0.13 | 210
14 | D3H44 Fab heterodimer, H1L1 of LCCA Set # 9819 (H1 Q39E_L143E_K145T_H172R_Q179E; L1 Q38R_Q124R_Q160K_T178R) | 0.03 | 150
15 | D3H44 Fab heterodimer, H1L1 of LCCA Set # 9074 (H1 H172R_Q179K; L1 Q124E_Q160E_T180E) | -0.01 | 160
16 | D3H44 Fab heterodimer, H1L1 of LCCA Set # 9099 (H1 L124A_Q179K; L1 Q124E_V133W_S176T_T178L_T180E) | -0.09 | 190
17 | D3H44 Fab heterodimer, H1L1 of LCCA Sets # 9752 and 10552 (H1 L45P_L143E_K145T_H172R; L1 P44F_Q124R_Q160K_T178R) | -0.27 | 290
18 | D3H44 Fab heterodimer, H1L1 of LCCA Set # 9820 (H1 Q39E_L143E_K145T_Q179E; L1 Q38R_Q124R_Q160K_T178R) | -0.1 | 200
19 | D3H44 Fab heterodimer, H1L1 of LCCA Set # 9817 (H1 Q39E_L143E_K145T; L1 Q38R_Q124R_Q160K_T178R) | -0.05 | 180
20 | D3H44 Fab heterodimer, H1L1 of LCCA Set # 9760 (H1 Q179K; L1 Q124E_Q160E_T180E) | -0.31 | 320

target: tissue factor (TF) antigen (UniProt P13726); test: SPR, Fab captured on anti-penta-His, TF as analyte, 1:1 fit

Row | Substance | Change in KD with respect to wild type (-(log(KD design) - log(KD wt))) | Kd [pM]
21 | D3H44 Fab heterodimer, H L124R_S186R / L V133G_S176D_T178E_T180E | -0.15 | 220
22 | D3H44 Fab heterodimer, H L124E_L143D_K145T / L Q124K_V133G_S176R_T178K | -0.08 | 190
23 | D3H44 Fab heterodimer, H L124E_L143D_K145T / L Q124K_V133G_S176R_T178R | -0.02 | 150
24 | D3H44 Fab heterodimer, H L124E_L143E_K145M / L Q124K_V133G_S176R_T178R | -0.29 | 310
25 | D3H44 Fab heterodimer, H L124E_L143E_K145M / L Q124K_V133G_S176R_T178K | -0.19 | 240
26 | D3H44 Fab heterodimer, H L124E_L143D_K145M / L Q124K_V133G_S176R_T178K | -0.15 | 220
